Holding throughout (assay): purified protein
Format in all cases: biochemical, Sorangium cellulosum
Settings in all cases: 50 mM Tris-HCl pH 8.0, 30 °C

Substrate in data set [1]: CC(=O)Oc1ccc([N+](=O)[O-])cc1
Substrate in data set [2]: CCCC(=O)Oc1ccc([N+](=O)[O-])cc1
Substrate in data set [3]: CCCCCCCC(=O)Oc1ccc([N+](=O)[O-])cc1
Substrate in data set [4]: CCCCCCCCCC(=O)Oc1ccc([N+](=O)[O-])cc1
Substrate in data set [5]: CCCCCCCCCCCC(=O)Oc1ccc([N+](=O)[O-])cc1

B1: r-LipA (Sorangium cellulosum) (protein)
chain: MPADTFTFQADDGRELFVYRWLPDDGARGIFHIAHGMSEHAGRYARLAHALSAAGWAVYANDHRGHGRTARERGELGFFASQGGFQRVVRDLAALIAREQEAHPGLPVVLFGHSMGSSLVQEYLIERGGSIQGAVLSGSSGKPSPLVDAGRLVARAERRRLGERGKSQLLQSMSFDSFNKLFAPARTPFDWLSRDRAEVDGYIADPCCGFPATVSLWIDLLDAMVDIARPERQARIPKDLPVYVFSGSRDPVGGPLRSVTQMIEAYRAAGLRRVTPRIYPGGRHEMLNEINREEVVRDLLAWLDAEVKTEAAPARPARPSAGAAAG
notes: pET-22b(+) NdeI/HindIII, His-tag (C-terminal by vector and stop-less reverse primer), E. coli BL21(DE3), Ni-NTA; tryptic peptides GELGFFASQGGFQR, SVTQMIEAYR; GHSMG at 112-116, Ser114/Asp250/His284
As a reminder, the Km is the substrate concentration at which the rate is half of its maximum. By kcat is commonly meant the number of substrate molecules converted per active site and unit of time at saturation. For orientation: kcat/Km means the second-order rate constant that governs catalysis at low substrate concentration. As for B1, the Km in the data set “purified protein [1]” stood at 174 ± 6 µM; in the data set “purified protein [2]”, 366 ± 211 µM; in “purified protein [3]”, 704 ± 26 µM; in “purified protein [4]” it was 1664 ± 47 µM; in the data set “purified protein [5]”, 1946 ± 59 µM. For the same protein, the kcat in the data set “purified protein [1]” was 29.2 ± 0.977 s⁻¹; in “purified protein [2]”, 13.6 ± 0.735 s⁻¹; in the data set “purified protein [3]” it was 3.29 ± 0.114 s⁻¹; in “purified protein [4]” it was 1.56 ± 0.036 s⁻¹; in the data set “purified protein [5]”, 1.21 ± 0.032 s⁻¹. For the same protein, the kcat/Km came to 168000 ± 2100 M⁻¹ s⁻¹ in “purified protein [1]”; 37170 ± 128 M⁻¹ s⁻¹ in “purified protein [2]”; 4677 ± 13 M⁻¹ s⁻¹ in the data set “purified protein [3]”; 940 ± 5 M⁻¹ s⁻¹ in “purified protein [4]”; 619 ± 2 M⁻¹ s⁻¹ in the data set “purified protein [5]”.

These data come from PMC3211009, “A Novel Cold-Adapted Lipase from Sorangium cellulosum Strain So0157-2: Gene Cloning, Expression, and Enzymatic Characterization” (International Journal of Molecular Sciences, 2011).
